In patent US20030198640A1 (Human Genome Sciences, published 2003):
Blank lines part the entries; values can stand above or below the binder they belong to.

B3: full length TNF-gamma-beta expressed on the cell surface (HEK293F stable transfectants; cells transfected with TNF-gamma-β) (ligand)
chain: MAEDLGLSFGETASVEMLPEHGSCRPKARSSSARWALTCCLVLLPFLAGLTTYLLVSQLRAQGEACVQFQALKGQEFAPSHQQVYAPLRADGDKPRAHLTVVRQTPTQHFKNQFPALHWEHELGLAFTKNRMNYTNKFLLIPESGDYFIYSQVTFRGMTSECSEIRQAGRPNKPDSITVVITKVTDSYPEPTQLLMGTKSVCEVGSNWFQPIYLGAMFSLQEGDKLMVNVSDISLVDYTKEDKTFFGAFLL
notes: also called TNF-gamma-beta expressing cells

What was measured:
[1] = molecular target: T1, TNF-gamma-β polypeptide (amino acid residues 72-251 of SEQ ID NO:2), untagged recombinant protein (human, UniProt O95150 72-251); experiment: BIAcore, control receptor surface
T1 construct: also called TL1β
T1 sequence: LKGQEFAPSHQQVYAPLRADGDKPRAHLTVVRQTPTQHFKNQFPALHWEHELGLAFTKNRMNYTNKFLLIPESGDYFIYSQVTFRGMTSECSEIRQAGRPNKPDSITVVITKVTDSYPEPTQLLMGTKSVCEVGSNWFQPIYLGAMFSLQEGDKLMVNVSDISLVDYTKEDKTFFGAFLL
Method: (§1) TNFR-Fc were covalently immobilized to the BIAcore sensor chip (CM5 chip) via amine groups using N-ethyl-N′-(dimethylaminopropyl) carbodiimide/N-hydroxysuccinimide chemistry. […] The amount of bound protein was determined during washing of the flow cell with HBS buffer (10 mM HEPES, pH 7.4, 150 mM NaCl, 3.4 mM EDTA, 0.005% Surfactant P20). The flow cell surface was regenerated by displacing bound protein by washing with 20 microliters of 10 mM glycine-HCl, pH 2.3. For kinetic analysis, the on and off rates were determined using the kinetic evaluation program in BIAevaluation 3 software using a 1:1 binding model and the global analysis method.

[2] = molecular target: B3; experiment: flow cytometry on HEK293F cells expressing full length TNF-gamma-beta
Method: (§2) These cells were used to screen the Fc-fusion form of the extracellular domain of TNFR family members, including TNFR1, Fas, HveA, DR3, DR4, DR5, DR6, DcR1, DcR2, TR6, OPG, RANK, AITR, TAC1, CD40, and OX40. […] TR6 has been previously described as a decoy receptor (Pitti et al., Nature 396:699-703 (1998); Yu et al., J. Biol. Chem. 274:13733-6 (1999)) capable of competing with Fas and HveA for binding of FasL and LIGHT, respectively.
(§3) One million cells, in 0.1 ml of FACS buffer (PBS, 0.1% BSA, 0.1% NaN₃), were incubated with 0.1-1 microgram of protein or antibody at RT for 15 min. The cells were washed with 3 ml of FACS buffer, reacted with biotinylated primary antibody, and stained with PE-conjugated secondary antibody at RT for 15 min. Cells were then washed again, resuspended in 0.5 microgram/ml of propidium iodide, and live cells were gated and analyzed on a FACScan using the CellQuest software (BD Biosciences).

[3] = molecular target: T2, FLAG-tagged soluble form of TNF-gamma-beta (aa 72-251) (human, UniProt O95150 72-251); experiment: co-immunoprecipitation with protein A-Sepharose, anti-Flag blot
T2 construct: also called FLAG-TL1β; FLAG-TNF-gamma-beta; not shown: FLAG tag of the pFLAG-CMV-1 vector at the amino terminus
T2 sequence: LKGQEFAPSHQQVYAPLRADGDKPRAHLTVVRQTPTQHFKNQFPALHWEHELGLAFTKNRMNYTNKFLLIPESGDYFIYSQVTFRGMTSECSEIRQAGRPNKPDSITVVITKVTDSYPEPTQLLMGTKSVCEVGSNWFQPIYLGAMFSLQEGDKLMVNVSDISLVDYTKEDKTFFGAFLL
From the text: The beads were then precipitated and washed extensively with PBST buffer (PBS, 0.5% Triton X-100) before boiled in SDS-sample buffer. Proteins were resolved on 4-20% Tris-Glycine gels (NOVEX), transferred to nitrocellulose membranes, and blotted with anti-Flag M2 monoclonal antibody (1 microgram/ml, Sigma) and horseradish peroxidase (HRP)-conjugated goat anti-mouse IgG antibody (0.5 microgram/ml).

[4] = molecular target: T3, TR6-Fc (full-length human TNFR-6 alpha, SEQ ID NO:6 aa 1-300, fused to the Fc domain of human IgG1) (human, UniProt O95407 30-300); experiment: FACS on transfected cells
T3 construct: also called TNFR-6 alpha Fc fusion protein; DcR3-Fc; not shown: Fc domain of human IgG1
T3 sequence: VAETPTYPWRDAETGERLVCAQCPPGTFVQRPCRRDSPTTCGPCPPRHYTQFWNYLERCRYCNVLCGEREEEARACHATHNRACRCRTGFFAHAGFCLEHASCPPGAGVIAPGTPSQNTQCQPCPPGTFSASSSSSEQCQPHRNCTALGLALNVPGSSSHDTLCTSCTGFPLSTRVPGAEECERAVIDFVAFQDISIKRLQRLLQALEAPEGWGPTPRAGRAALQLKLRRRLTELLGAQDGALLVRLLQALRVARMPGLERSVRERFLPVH

[5] = molecular target: T4, DR6 (Fc-fusion form of the extracellular domain) (UniProt O75509 42-349, limits assumed); experiment: flow cytometry on HEK293F cells expressing full length TNF-gamma-beta
T4 construct: extracellular domain; not shown: Fc part
T4 sequence (looked up): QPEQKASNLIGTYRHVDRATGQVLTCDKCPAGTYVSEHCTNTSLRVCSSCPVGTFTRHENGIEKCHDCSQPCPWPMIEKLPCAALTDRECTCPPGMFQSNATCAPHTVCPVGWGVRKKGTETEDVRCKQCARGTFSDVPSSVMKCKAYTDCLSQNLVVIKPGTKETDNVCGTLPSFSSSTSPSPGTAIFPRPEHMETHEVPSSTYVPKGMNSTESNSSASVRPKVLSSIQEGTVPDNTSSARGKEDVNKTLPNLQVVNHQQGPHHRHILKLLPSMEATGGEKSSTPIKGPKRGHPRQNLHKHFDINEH
Method: as §2, §3

[6] = molecular target: T1, TNF-gamma-β polypeptide (amino acid …); experiment: BIAcore, DR3-Fc immobilised, three batches of TNF-gamma-beta; DR3-Fc
Method: as §1

[7] = molecular target: T1, TNF-gamma-β polypeptide (amino acid …); experiment: BIAcore, DR3-Fc immobilised, average of three batches; DR3-Fc, average of three batches
Method: as §1

B1: BCMA-Fc (Fc fusion, human, UniProt Q02223 1-54, looked up)
chain: MLQMAGQCSQNEYFDSLLHACIPCQLRCSSNTPPLTCQRYCNASVTNSVKGTNA
notes: not shown: Fc part
binding result [1]: no binding (tested: 370 nM (top of the range 3-370 nM))

binding result [2]: no binding
binding result [3]: no binding
B2: TACI-Fc (extracellular domain of human TACI, aa 1-159, fused to the Fc domain of human IgG1) (Fc fusion, UniProt O14836 1-159, looked up)
chain: MSGLGRSRRGGRSRVDQEERFPQGLWTGVAMRSCPEEQYWDPLLGTCMSCKTICNHQSQRTCAAFCRSLSCRKEQGKFYDHLLRDCISCASICGQHPKQCAYFCENKLRSPVNLPPELRRQRSGEVENNSDNSGRYQGLEHRGSEASPALPGLKLSADQ
notes: range 1-159; also called TAC1 (Fc-fusion); not shown: Fc domain of human IgG1

Binder: B3
binding result [4]: binds
binding result [5]: no binding

koff [6]: 0.00413 s⁻¹
kon [6]: 639000 M⁻¹ s⁻¹
Kd [7]: 6.45 nM
B4: DR3-Fc (extracellular domain of human DR3, aa 1-199, fused at its C-terminus to the Fc domain of human IgG1) (Fc fusion)
chain: QGGTRSPRCDCAGDFHKKIGLFCCRGCPAGHYLKAPCTEPCGNSTCLVCPQDTFLAWENHHNSECARCQACDEQASQVALENCSAVADTRCGCKPGWFVECQVSQCVSSSPFYCQPCLDCGALHRHTRLLCSRRDTDCGTCLPGFYEHGDGCVSCPTSTLGSCPERCAAVCGWRQ
notes: not shown: Fc domain of human IgG1
